# Measurements published in IntAct's records for PubMed 24980795.
# B1: Spindle-defective protein 2 (Caenorhabditis elegans), P91870 (parent)
# chain: MEDDAPMNLCNEQFEEIEDSPIDDNDNESFYNADGDVELEEEEVHETPKNFKNGGRFKTNMTNPKVNDLTTIEEKNEDLRSAASSRSASRPASVMSDKSFSSQFEFQSGGENAIEEYTNQVFADENKADLLFPETSKFMNGASPPKDKHHSWEPSIHHYDKQPPPDIQTNSPVFGNLNHRKNKLIPQARAKPGANDNEIVERDNDENVPTTSDKSAFITSPMNSTNHDEKTSTPKRPTNRKIGQYQGPNFDLSSIYVGSPQHQNTSISTGQQMPTSSYSHAHSETMMTNQTINESMVRRVLNGNNKNQDLFAALEEARKRRAAQPSKPDFRINTTRTRVPIKPTSARHSGNVVSSTSNDNTTAASSKDLTTSRKAMETFRQNASMADATNSNTASMTSILSTISTARTDISRSSRNHGGGFSNTSVSTVIPANNGNVSLSHGRDGRDSVSSVRTMSRASSTSTVYAGSTFSGVSKPLRIHAKRVAFGCVAVGETLRVEVEVENISDRQCLVRASTDSTTPVYQILDNKLTMVDPKKSIKFQVSFSPSSVGRYQVIMSIEVPAQNFIHKIPMWGNGGIAKFVPTSPDLQQTINQSEYAMCTSCAKRISFKISNSAGTRDGFAMIKVFDSAMRQLPDGCVAFFPAPGFIVKKKSDKRVDIRIDSSYIDLHDENNFRTSSSLSTASTTSSFQRRILPGAKFFVHVVWGEETMRTRLRLLEVRTGQHQLIDGHDFTSFQFSDEEVLRAVPVGFPAIKPEDRDLFAASYRSFFINFFTSTTEFRAATSRKKKEICSNDDSTLLETTAFRNQTFVNDVTIVPNTRFSNRK
# partner: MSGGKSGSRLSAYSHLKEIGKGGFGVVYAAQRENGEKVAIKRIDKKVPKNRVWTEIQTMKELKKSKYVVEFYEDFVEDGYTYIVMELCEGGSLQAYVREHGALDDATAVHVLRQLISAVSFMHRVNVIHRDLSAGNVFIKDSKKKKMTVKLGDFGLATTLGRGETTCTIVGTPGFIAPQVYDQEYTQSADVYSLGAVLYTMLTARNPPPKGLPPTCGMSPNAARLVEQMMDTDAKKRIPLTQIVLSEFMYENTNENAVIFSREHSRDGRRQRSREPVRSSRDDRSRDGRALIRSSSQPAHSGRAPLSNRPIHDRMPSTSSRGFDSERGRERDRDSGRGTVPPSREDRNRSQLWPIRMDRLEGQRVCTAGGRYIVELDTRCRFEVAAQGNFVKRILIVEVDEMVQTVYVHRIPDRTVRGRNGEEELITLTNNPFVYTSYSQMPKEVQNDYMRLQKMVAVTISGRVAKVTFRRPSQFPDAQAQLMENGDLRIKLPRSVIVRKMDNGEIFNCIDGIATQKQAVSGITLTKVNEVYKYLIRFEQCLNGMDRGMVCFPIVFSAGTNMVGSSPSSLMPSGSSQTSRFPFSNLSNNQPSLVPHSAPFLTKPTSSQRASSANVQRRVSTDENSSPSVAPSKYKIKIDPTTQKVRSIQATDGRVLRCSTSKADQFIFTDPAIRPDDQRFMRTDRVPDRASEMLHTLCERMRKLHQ
# B2: Probable serine/threonine-protein kinase zyg-1 (Caenorhabditis elegans), Q9GT24 (parent)
# chain: B1 partner
# partner: B1 chain
# B3: Serine/threonine-protein kinase PLK4 (Mus musculus), Q64702-1 (parent)
# chain: MAACIGERIEDFKVGNLLGKGSFAGVYRAESIHTGLEVAIKMIDKKAMYKAGMVQRVQNEVKIHCQLKHPSVLELYNYFEDNNYVYLVLEMCHNGEMNRYLKNRMKPFSEREARHFMHQIITGMLYLHSHGILHRDLTLSNILLTRNMNIKIADFGLATQLNMPHEKHYTLCGTPNYISPEIATRSAHGLESDIWSLGCMFYTLLIGRPPFDTDTVKNTLNKVVLADYEMPAFLSREAQDLIHQLLRRNPADRLSLSSVLDHPFMSRNPSPKSKDVGTVEDSMDSGHATLSTTITASSGTSLSGSLLDRRLLVGQPLPNKITVFQKNKNSSDFSSGDGSNFCTQWGNPEQEANSRGRGRVIEDAEERPHSRYLRRAHSSDRASPSNQSRAKTYSVERCHSVEMLSKPRRSLDENQHSSNHHCLGKTPFPFADQTPQMEMVQQWFGNLQMNAHLGETNEHHTVSPNRDFQDYPDLQDTLRNAWTDTRASKNADTSANVHAVKQLSAMKYMSAHHHKPEVMPQEPGLHPHSEQSKNRSMESTLGYQKPTLRSITSPLIAHRLKPIRQKTKKAVVSILDSEEVCVELLRECASEGYVKEVLQISSDGTMITVYYPNDGRGFPLADRPPLPTDNISRYSFDNLPEKYWRKYQYASRFIQLVRSKTPKITYFTRYAKCILMENSPGADFEVWFYDGAKIHKTENLIHIIEKTGISYNLKNENEVTSLKEEVKVYMDHANEGHRICLSLESVISEEEKRSRGSSFFPIIVGRKPGNTSSPKALSAPPVDPSCCKGEQASASRLSVNSAAFPTQSPGLSPSTVTVEGLGHTATATGTGVSSSLPKSAQLLKSVFVKNVGWATQLTSGAVWVQFNDGSQLVVQAGVSSISYTSPDGQTTRYGENEKLPEYIKQKLQCLSSILLMFSNPTPNFQ
# Variants of: B1
# Conditions: with zyg1_caeel zyg-1, Q9GT24
row,effect of a mutation on the interaction,Variant
1,decreasing interaction strength,D26K;E28K;D34K;D36K
2,decreasing interaction strength,E38K;E40K;E41K;E42K;E43K

# Variants of: B1
# Conditions: with zyg1_caeel zyg-1, Q9GT24
# Remark: another data set of the same source
row,effect of a mutation on the interaction,Variant
1,disrupting interaction strength,E12K;E15K;E16K;E18K;D19K
2,disrupting interaction strength,E38K;E40K;E41K;E42K;E43K

# Variants of: B2
# Conditions: with spd2_caeel spd-2, P91870
row,effect of a mutation on the interaction,Variant
1,decreasing interaction strength,R471E
2,disrupting interaction strength,R470E;R471E
3,disrupting interaction strength,K500E
4,decreasing interaction strength,K454E
5,disrupting interaction strength,R489E;K491E
6,decreasing interaction strength,R470E
7,disrupting interaction strength,R463E

# Variants of: B3
# Conditions: with ce152_mouse Cep152, A2AUM9
# ce152_mouse Cep152, A2AUM9, sequence (A2AUM9 whole entry): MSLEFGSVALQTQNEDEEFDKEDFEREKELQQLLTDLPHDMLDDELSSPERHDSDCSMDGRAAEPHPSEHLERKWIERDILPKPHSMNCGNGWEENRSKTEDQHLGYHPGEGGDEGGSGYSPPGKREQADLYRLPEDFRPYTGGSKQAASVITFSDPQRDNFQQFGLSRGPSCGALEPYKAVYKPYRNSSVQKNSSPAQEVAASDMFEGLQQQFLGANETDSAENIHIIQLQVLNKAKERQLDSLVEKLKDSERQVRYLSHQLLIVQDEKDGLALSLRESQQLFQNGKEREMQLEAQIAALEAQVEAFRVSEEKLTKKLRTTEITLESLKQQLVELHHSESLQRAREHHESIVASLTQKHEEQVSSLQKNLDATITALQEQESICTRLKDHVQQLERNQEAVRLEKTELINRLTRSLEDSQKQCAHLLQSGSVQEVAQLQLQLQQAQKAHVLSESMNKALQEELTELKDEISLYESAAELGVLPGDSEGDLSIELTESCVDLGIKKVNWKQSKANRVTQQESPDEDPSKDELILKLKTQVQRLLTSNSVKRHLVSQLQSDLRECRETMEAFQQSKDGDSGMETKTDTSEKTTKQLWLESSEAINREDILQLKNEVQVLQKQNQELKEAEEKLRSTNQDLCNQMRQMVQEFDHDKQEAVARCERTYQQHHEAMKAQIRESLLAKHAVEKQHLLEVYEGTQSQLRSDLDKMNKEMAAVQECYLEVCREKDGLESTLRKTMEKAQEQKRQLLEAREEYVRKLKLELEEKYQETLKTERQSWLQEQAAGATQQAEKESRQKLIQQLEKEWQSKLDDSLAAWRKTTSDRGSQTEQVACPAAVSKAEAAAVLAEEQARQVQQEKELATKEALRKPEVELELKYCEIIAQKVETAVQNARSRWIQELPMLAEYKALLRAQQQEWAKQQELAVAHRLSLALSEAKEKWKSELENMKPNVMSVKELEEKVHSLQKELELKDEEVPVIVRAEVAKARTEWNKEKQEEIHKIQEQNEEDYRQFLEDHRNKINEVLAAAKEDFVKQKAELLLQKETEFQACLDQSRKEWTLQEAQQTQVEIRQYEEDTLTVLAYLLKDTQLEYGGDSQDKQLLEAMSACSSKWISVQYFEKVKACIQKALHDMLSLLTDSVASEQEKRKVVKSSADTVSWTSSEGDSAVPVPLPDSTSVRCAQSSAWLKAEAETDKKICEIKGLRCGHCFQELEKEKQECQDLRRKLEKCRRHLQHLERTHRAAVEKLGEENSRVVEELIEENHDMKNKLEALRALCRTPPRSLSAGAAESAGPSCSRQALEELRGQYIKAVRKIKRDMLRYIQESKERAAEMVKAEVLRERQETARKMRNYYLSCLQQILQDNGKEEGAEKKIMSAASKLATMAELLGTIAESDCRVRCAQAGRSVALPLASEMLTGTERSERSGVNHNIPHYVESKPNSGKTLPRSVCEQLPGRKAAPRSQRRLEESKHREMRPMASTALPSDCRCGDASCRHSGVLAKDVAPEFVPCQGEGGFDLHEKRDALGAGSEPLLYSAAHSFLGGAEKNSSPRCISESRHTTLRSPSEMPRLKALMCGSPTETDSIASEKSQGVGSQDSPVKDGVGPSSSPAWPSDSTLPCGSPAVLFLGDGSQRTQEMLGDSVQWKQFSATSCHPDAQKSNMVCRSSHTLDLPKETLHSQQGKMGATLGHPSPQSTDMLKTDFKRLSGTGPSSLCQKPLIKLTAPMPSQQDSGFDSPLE
row,effect of a mutation on the interaction,Variant
1,decreasing interaction strength,R652E
2,decreasing interaction strength,R766E;K767E
3,increasing interaction strength,K568E;K569E
4,decreasing interaction strength,K693E
5,decreasing interaction strength,K660E
6,decreasing interaction strength,K672E

# Variants of: B3
# Conditions: with Cep192, E9Q4Y4
# Cep192, E9Q4Y4, sequence (E9Q4Y4 entry or part of it): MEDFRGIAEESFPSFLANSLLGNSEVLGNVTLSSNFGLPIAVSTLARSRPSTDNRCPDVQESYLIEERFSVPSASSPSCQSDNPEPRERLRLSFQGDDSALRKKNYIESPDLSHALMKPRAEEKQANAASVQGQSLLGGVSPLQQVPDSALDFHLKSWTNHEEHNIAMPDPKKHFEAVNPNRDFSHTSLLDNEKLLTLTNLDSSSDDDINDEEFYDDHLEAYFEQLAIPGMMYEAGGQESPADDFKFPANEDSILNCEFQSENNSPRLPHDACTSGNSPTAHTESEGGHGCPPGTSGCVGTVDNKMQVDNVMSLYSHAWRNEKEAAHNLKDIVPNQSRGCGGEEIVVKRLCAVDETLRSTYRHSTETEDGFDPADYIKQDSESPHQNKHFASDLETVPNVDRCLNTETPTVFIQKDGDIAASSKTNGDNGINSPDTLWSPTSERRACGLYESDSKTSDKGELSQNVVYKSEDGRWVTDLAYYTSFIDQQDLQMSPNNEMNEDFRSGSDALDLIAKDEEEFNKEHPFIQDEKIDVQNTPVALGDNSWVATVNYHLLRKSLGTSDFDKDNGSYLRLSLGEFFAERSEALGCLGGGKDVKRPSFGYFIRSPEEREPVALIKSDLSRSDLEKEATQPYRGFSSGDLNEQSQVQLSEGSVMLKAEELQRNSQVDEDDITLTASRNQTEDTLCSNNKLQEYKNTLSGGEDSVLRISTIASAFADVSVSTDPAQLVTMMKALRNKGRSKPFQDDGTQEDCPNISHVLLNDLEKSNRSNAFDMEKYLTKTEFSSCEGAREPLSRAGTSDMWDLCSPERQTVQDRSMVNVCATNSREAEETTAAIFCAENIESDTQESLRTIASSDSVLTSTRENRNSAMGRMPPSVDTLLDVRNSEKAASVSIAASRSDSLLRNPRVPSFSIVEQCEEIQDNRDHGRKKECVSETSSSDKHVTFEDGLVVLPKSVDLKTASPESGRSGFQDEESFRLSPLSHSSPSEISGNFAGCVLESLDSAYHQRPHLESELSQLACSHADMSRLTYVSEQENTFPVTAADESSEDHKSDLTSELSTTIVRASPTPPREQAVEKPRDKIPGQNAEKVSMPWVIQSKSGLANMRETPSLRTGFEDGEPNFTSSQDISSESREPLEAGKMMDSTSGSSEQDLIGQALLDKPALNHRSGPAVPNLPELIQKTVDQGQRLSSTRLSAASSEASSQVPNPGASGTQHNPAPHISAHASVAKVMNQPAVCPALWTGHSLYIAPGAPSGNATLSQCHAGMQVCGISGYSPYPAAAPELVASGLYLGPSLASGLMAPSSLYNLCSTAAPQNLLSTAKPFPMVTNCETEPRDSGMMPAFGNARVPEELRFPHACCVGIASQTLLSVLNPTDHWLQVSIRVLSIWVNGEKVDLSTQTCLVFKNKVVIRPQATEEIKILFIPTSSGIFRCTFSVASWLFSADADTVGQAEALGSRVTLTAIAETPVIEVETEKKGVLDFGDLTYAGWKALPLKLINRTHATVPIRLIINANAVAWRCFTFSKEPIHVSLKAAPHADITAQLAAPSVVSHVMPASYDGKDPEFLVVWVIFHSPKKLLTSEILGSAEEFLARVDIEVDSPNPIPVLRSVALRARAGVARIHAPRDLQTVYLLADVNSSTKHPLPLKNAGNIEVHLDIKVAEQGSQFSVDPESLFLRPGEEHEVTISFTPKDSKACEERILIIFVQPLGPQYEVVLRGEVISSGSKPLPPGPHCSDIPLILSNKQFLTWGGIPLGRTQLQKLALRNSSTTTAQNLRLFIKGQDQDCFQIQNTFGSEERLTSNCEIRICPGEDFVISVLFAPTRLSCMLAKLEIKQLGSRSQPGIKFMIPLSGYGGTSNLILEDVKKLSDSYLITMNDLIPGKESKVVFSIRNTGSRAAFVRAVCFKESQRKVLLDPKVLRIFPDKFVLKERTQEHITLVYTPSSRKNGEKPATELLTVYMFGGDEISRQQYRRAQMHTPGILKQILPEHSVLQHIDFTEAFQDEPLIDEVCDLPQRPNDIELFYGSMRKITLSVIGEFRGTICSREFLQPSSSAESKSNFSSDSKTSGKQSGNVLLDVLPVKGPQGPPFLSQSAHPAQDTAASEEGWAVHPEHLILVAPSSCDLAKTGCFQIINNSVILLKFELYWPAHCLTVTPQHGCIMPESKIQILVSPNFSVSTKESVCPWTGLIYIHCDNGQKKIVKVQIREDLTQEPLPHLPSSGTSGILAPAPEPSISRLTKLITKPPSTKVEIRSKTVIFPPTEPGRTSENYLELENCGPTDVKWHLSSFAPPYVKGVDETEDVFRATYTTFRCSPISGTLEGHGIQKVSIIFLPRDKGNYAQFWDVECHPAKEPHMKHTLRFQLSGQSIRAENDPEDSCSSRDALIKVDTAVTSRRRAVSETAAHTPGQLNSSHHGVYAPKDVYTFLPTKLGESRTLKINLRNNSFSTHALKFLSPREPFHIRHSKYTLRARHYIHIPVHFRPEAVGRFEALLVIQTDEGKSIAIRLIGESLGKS
row,Variant,effect of a mutation on the interaction
1,R766E;K767E,decreasing interaction strength
2,R564E;K566E,increasing interaction strength

# Other lines, results leading:
row,effect of a mutation on the interaction,Variant
1,decreasing interaction strength,K693E
2,increasing interaction strength,K660E
3,decreasing interaction strength,K672E
